For test [1], the target named is T1, human CD3 on primary human T cells (human, UniProt P07766 23-207; P04234 22-171).
T1 construct: whole, on cells; On cells the whole CD3/TCR complex is present
Put plainly: flow cytometry on primary human T cells, 37 C. On the technique in general: A flow cytometer gives signals particle by particle.

Test [2] addresses T2, human B7-H4 on cells (human, UniProt Q7Z7D3 25-282).
T2 sequence (looked up): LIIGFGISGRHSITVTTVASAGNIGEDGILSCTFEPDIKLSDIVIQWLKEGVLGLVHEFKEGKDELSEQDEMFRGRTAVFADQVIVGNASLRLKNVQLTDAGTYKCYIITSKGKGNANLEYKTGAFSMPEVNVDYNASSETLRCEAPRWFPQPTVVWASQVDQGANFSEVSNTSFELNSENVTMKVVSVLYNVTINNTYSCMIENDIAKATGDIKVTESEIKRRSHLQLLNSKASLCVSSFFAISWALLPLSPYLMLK
Put plainly: cell-based or functional assay.

The target of test [3] is T2, human B7-H4 on cells. Put plainly: flow cytometry on MX-1 cells, 37 C.

As a reminder, the EC50 is the concentration at which the effect is half-maximal. High values mean a less potent agent, low ones a more potent agent.

T1 sequence (P07766 23-207, chain 1 of 2): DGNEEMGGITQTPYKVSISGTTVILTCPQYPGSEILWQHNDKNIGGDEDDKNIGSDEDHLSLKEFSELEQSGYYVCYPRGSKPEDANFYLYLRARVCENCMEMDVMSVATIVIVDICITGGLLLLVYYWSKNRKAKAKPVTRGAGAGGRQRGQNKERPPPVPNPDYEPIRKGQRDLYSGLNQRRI
T1 sequence (P04234 22-171, chain 2 of 2): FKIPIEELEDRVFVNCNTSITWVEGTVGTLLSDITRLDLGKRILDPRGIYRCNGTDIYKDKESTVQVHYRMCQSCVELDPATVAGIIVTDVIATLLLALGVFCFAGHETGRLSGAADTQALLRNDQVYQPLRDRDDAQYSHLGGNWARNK

B1: B7-H4xCD3 bispecific antibody 1037 (bispecific antibody, IgG2)
heavy 1: EVQLVESGGGLVQPGGSLRLSCAVSGGSFSGYYWNWVRQAPGKGLEWIGEINHSGSATYNPSLKSRVTISVDTAKNSLYLQMNSLRAEDTAVYYCARGLYNWNVDHWGQGTLVTVSSASTKGPSVFPLAPCSRSTSESTAALGCLVKDYFPEPVTVSWNSGALTSGVHTFPAVLQSSGLYSLSSVVTVPSSNFGTQTYTCNVDHKPSNTKVDKTVERKCEVECPECPAPPVAGPSVFLFPPKPKDTLMISRTPEVTCVVVAVSHEDPEVQFNWYVDGVEVHNAKTKPREEQFNSTFRVVSVLTVVHQDWLNGKEYKCKVSNKGLPSSIEKTISKTKGQPREPQVYTLPPSREEMTKNQVSLTCEVKGFYPSDIAVEWESNGQPENNYKTTPPMLDSDGSFFLYSKLTVDKSRWQQGNVFSCSVMHEALHNHYTQKSLSLSPG
light 1: DIQMTQSPSSLSASVGDRVTITCRASQGIRNDLGWYQQKPGKAPKRLIYAASSLQSGVPSRFSGSGSGTDFTLTISSLQPEDFATYYCLQHSSYPRTFGGGTKVEIKRTVAAPSVFIFPPSDEQLKSGTASVVCLLNNFYPREAKVQWKVDNALQSGNSQESVTEQDSKDSTYSLSSTLTLSKADYEKHKVYACEVTHQGLSSPVTKSFNRGEC
heavy 2: EVQLVESGGGLVQPGGSLRLSCAASGFTFSDYYMTWVRQAPGKGLEWVAFIRNQARGYTSDHNPSVKGRFTISRDNAKNSLYLQMNSLRAEDTAVYYCARDRPSYYVLDYWGQGTTVTVSSASTKGPSVFPLAPCSRSTSESTAALGCLVKDYFPEPVTVSWNSGALTSGVHTFPAVLQSSGLYSLSSVVTVPSSNFGTQTYTCNVDHKPSNTKVDKTVERKCRVRCPRCPAPPVAGPSVFLFPPKPKDTLMISRTPEVTCVVVAVSHEDPEVQFNWYVDGVEVHNAKTKPREEQFNSTFRVVSVLTVVHQDWLNGKEYKCKVSNKGLPSSIEKTISKTKGQPREPQVYTLPPSREEMTKNQVSLTCLVKGFYPSDIAVEWESNGQPENNYKTTPPMLDSDGSFFLYSRLTVDKSRWQQGNVFSCSVMHEALHNHYTQKSLSLSPGK
light 2: DIQMTQSPSSLSASVGDRVTITCTSSQSLFNVRSQKNYLAWYQQKPGKAPKLLIYWASTRESGVPSRFSGSGSGTDFTLTISSLQPEDFATYYCKQSYDLFTFGGGTKVEIKRTVAAPSVFIFPPSDEQLKSGTASVVCLLNNFYPREAKVQWKVDNALQSGNSQESVTEQDSKDSTYSLSSTLTLSKADYEKHKVYACEVTHQGLSSPVTKSFNRGEC
notes: Chains 1-2: B7-H4 arm; chains 3-4: CD3 arm; IgG2
For the molecule B1, the concentration for a half-maximal effect (EC50) in test [1] is 5.78 nM; in the test with human B7-H4 on cells [3], 3.64 nM. Besides, the “T cell mediated tumor cell killing EC50, HCC1954-Luc” value with human B7-H4 on cells [2] was 620 nM. For the same molecule, the “T cell mediated tumor cell killing, T47D” value with human B7-H4 on cells [2] amounted to 1270.

B2: B7-H4xCD3 bispecific antibody 1134 (bispecific antibody, IgG2)
heavy 1: EVQLVESGGGLVQPGGSLRLSCAVSGGSFSGYYWNWIRQPPGKGLEWIGEIDHQGSTKYNPSLKSRVTISVDTAKNSFYLQMNSLRAEDTAVYYCARGLYNWNVDHWGQGTLVTVSSASTKGPSVFPLAPCSRSTSESTAALGCLVKDYFPEPVTVSWNSGALTSGVHTFPAVLQSSGLYSLSSVVTVPSSNFGTQTYTCNVDHKPSNTKVDKTVERKCEVECPECPAPPVAGPSVFLFPPKPKDTLMISRTPEVTCVVVAVSHEDPEVQFNWYVDGVEVHNAKTKPREEQFNSTFRVVSVLTVVHQDWLNGKEYKCKVSNKGLPSSIEKTISKTKGQPREPQVYTLPPSREEMTKNQVSLTCEVKGFYPSDIAVEWESNGQPENNYKTTPPMLDSDGSFFLYSKLTVDKSRWQQGNVFSCSVMHEALHNHYTQKSLSLSPG
light 1: DIQMTQSPSSLSASVGDRVTITCRASQGIRNDLGWYQQKPGKAPKRLIYAASSLQSGVPSRFSGSGSGTDFTLTISSLQPEDFATYYCLQHNAYPRTFGGGTKVEIKRTVAAPSVFIFPPSDEQLKSGTASVVCLLNNFYPREAKVQWKVDNALQSGNSQESVTEQDSKDSTYSLSSTLTLSKADYEKHKVYACEVTHQGLSSPVTKSFNRGEC
heavy 2: EVQLVESGGGLVQPGGSLRLSCAASGFTFSDYYMTWVRQAPGKGLEWVAFIRNQARGYTSDHNPSVKGRFTISRDNAKNSLYLQMNSLRAEDTAVYYCARDRPSYYVLDYWGQGTTVTVSSASTKGPSVFPLAPCSRSTSESTAALGCLVKDYFPEPVTVSWNSGALTSGVHTFPAVLQSSGLYSLSSVVTVPSSNFGTQTYTCNVDHKPSNTKVDKTVERKCRVRCPRCPAPPVAGPSVFLFPPKPKDTLMISRTPEVTCVVVAVSHEDPEVQFNWYVDGVEVHNAKTKPREEQFNSTFRVVSVLTVVHQDWLNGKEYKCKVSNKGLPSSIEKTISKTKGQPREPQVYTLPPSREEMTKNQVSLTCLVKGFYPSDIAVEWESNGQPENNYKTTPPMLDSDGSFFLYSRLTVDKSRWQQGNVFSCSVMHEALHNHYTQKSLSLSPGK
light 2: DIQMTQSPSSLSASVGDRVTITCTSSQSLFNVRSQKNYLAWYQQKPGKAPKLLIYWASTRESGVPSRFSGSGSGTDFTLTISSLQPEDFATYYCKQSYDLFTFGGGTKVEIKRTVAAPSVFIFPPSDEQLKSGTASVVCLLNNFYPREAKVQWKVDNALQSGNSQESVTEQDSKDSTYSLSSTLTLSKADYEKHKVYACEVTHQGLSSPVTKSFNRGEC
notes: as for B1
Molecule B2 yielded an EC50 in test [1] of 6.9 nM. In the test with human B7-H4 on cells [2], the “T cell mediated tumor cell killing EC50, HCC1954-Luc” value was found to be 1560 nM; the “T cell mediated tumor cell killing, OVCAR3-Luc” value was determined as 540; the “T cell mediated tumor cell killing, T47D” value worked out at 7330. The molecule also registered a concentration giving a half-maximal response (EC50) with human B7-H4 on cells [3] of 17.6 nM.

B3: B7-H4xCD3 bispecific antibody 1136 (bispecific antibody, IgG2)
heavy 1: EVQLVESGGGLVQPGGSLRLSCAASGGSFSGYYWNWIRQPPGKGLEWIGEINHSGSATYNPSLKSRVTISVDTAKNSFYLQMNSLRAEDTAVYYCARGLYNWNVDHWGQGTLVTVSSASTKGPSVFPLAPCSRSTSESTAALGCLVKDYFPEPVTVSWNSGALTSGVHTFPAVLQSSGLYSLSSVVTVPSSNFGTQTYTCNVDHKPSNTKVDKTVERKCEVECPECPAPPVAGPSVFLFPPKPKDTLMISRTPEVTCVVVAVSHEDPEVQFNWYVDGVEVHNAKTKPREEQFNSTFRVVSVLTVVHQDWLNGKEYKCKVSNKGLPSSIEKTISKTKGQPREPQVYTLPPSREEMTKNQVSLTCEVKGFYPSDIAVEWESNGQPENNYKTTPPMLDSDGSFFLYSKLTVDKSRWQQGNVFSCSVMHEALHNHYTQKSLSLSPG
light 1: DIQMTQSPSSLSASVGDRVTITCRASQGIRNDLGWYQQKPGKAPKRLIYAASSLQSGVPSRFSGSGSGTDFTLTISSLQPEDFATYYCLQHNAYPRTFGGGTKVEIKRTVAAPSVFIFPPSDEQLKSGTASVVCLLNNFYPREAKVQWKVDNALQSGNSQESVTEQDSKDSTYSLSSTLTLSKADYEKHKVYACEVTHQGLSSPVTKSFNRGEC
heavy 2: EVQLVESGGGLVQPGGSLRLSCAASGFTFSDYYMTWVRQAPGKGLEWVAFIRNQARGYTSDHNPSVKGRFTISRDNAKNSLYLQMNSLRAEDTAVYYCARDRPSYYVLDYWGQGTTVTVSSASTKGPSVFPLAPCSRSTSESTAALGCLVKDYFPEPVTVSWNSGALTSGVHTFPAVLQSSGLYSLSSVVTVPSSNFGTQTYTCNVDHKPSNTKVDKTVERKCRVRCPRCPAPPVAGPSVFLFPPKPKDTLMISRTPEVTCVVVAVSHEDPEVQFNWYVDGVEVHNAKTKPREEQFNSTFRVVSVLTVVHQDWLNGKEYKCKVSNKGLPSSIEKTISKTKGQPREPQVYTLPPSREEMTKNQVSLTCLVKGFYPSDIAVEWESNGQPENNYKTTPPMLDSDGSFFLYSRLTVDKSRWQQGNVFSCSVMHEALHNHYTQKSLSLSPGK
light 2: DIQMTQSPSSLSASVGDRVTITCTSSQSLFNVRSQKNYLAWYQQKPGKAPKLLIYWASTRESGVPSRFSGSGSGTDFTLTISSLQPEDFATYYCKQSYDLFTFGGGTKVEIKRTVAAPSVFIFPPSDEQLKSGTASVVCLLNNFYPREAKVQWKVDNALQSGNSQESVTEQDSKDSTYSLSSTLTLSKADYEKHKVYACEVTHQGLSSPVTKSFNRGEC
notes: as for B1
B3: the EC50 in test [1] was determined as 5.7 nM. In the test with human B7-H4 on cells [2], the “T cell mediated tumor cell killing EC50, HCC1954-Luc” value is 500 nM and the “T cell mediated tumor cell killing, T47D” value was 3820. This molecule also showed a concentration for a half-maximal effect (EC50) with human B7-H4 on cells [3] of 3.55 nM.

The values above are taken from patent US20220017622A1 (Pfizer, published 2022).
